# Laboratory results reported in patent US8889126B2, “Methods and compositions for treating neuropathies” (Washington University, priority 2004, dated 2014).
# Columns and labels:
# [1] = system: NAD generated after 1 hour at 37 deg; experiment: relative NMNAT enzymatic activity of affinity purified 6xHis-tagged proteins from HEK293T cells; format: biochemical; conditions: affinity purified protein, normalized to protein concentration
# Protocol: NMNAT protein overexpression, affinity purification and enzymatic assay. HEK293T cells were transfected with an expression plasmid for each enzyme by using calcium phosphate precipitation. Three days later, cells were washed with PBS twice and then suspended in the buffer containing 50 mM Sodium Phosphate (pH8.0), and 300 mM NaCl (buffer A). Cells were then homogenized by SONIFIRE 450 (BRANSON) and supernatant was collected by centrifugation at 10,000 g for 10 min. […] Relative NMNAT enzymatic activity was measured by using affinity purified proteins as described before and subtracted the value obtained from mock transfected cells and normalized by the amount of recombinant protein determined by densitometry.
# Next we confirmed enzymatic activity of cytNMNAT1, NMNAT1 and its mutant cytNMNAT1 were purified from the cell lysate expressing either of proteins by using affinity gel. […] We expressed hexa-histidine tagged NMNAT3 or nucNMNAT3 in HEK293T cells and analyzed subcellular localization and its enzymatic activity. […] In these investigations, the amount of NAD generated after 1 hour at 37 deg was converted NADH, quantified and normalized to protein concentration. […] FIG. 7E presents a quantitative analysis of remaining neurite numbers at 12, 24, 48, and 72 hours after axotomy. […]
# [2] = system: DRG explant neurons; experiment: in vitro Wallerian degeneration assay: DRG explant cultures, axonal transection by removal of neuronal cell bodies; format: cell-based, mouse; conditions: lentivirus-infected DRG neurons
# Protocol: To identify the mechanism of delayed axonal degeneration mediated by the Wld^s protein, we employed an in-vitro Wallerian degeneration model. Primary DRG explant neurons were infected with lentivirus expressing the appropriate proteins, and axons were injured by either removal of the neuronal cell body (transection) or growth in vincristine (toxic).
# Mouse DRG explants from E12.5 embryos were cultured in the presence of 1 nM nerve growth factor. Non-neuronal cells were removed from the cultures by adding 5-fluorouracil to the culture medium. Transection of neurites was performed at 10-20 DIV using an 18-gauge needle to remove the neuronal cell bodies. Incubation with β-nicotinamide adenine dinucleotide (Sigma) or Sirtinol (Calbiochem) was performed using conditions indicated in the text or figures.
# Lentiviral expression vectors were generated using HEK293T cells as described above. For confirmation of lentivirus-derived protein expression, HEK293T cells were infected with lentivirus and cells were lysed 3 days after infection. These lysates were analyzed by immunoblot to using anti-His tag monoclonal antibody (Qiagen) to detect expression of the respective hexahistidine-tagged proteins. Lentiviral infection of DRG neurons was performed by incubating ˜10^6-10^7 pfu/ml virus with the DRG explant for 24 h beginning 3-7 days prior to axonal transection. The infected neurons were examined under an inverted fluorescent microscope to insure detectable lentivirus-mediated transgene expression in >95% of neurons.
# Quantitative analysis of axonal degeneration was performed as previously described (Zhai, et al., Neuron 39:217-25, 2003). Briefly, the cultures were examined using phase contrast microscopy at the indicated times. Axons with a fragmented, non-refractile appearance were designated as “degenerated.” At each time point, at least 200 singly distinguishable axons were blindly scored from several randomly taken images of each culture. Each condition was tested in triplicate explants in each experiment. Results were obtained from 2-4 independent experiments for each condition. Statistical analysis was performed by Student's T test. For calculations of neurite-covered area, digitally captured images from quadruplicate samples of two independent experiments were analyzed using analysis 3.1 software (Soft Imaging System, Lakewood, Colo.).
# Cell culture, in vitro axotomy, and quantification of axonal degeneration. Mouse DRG explants from E12.5 embryos were cultured in the DMEM containing 10% FCS and 1 nM nerve growth factor. Non-neuronal cells were removed from the cultures by adding 5-fluorouracil to the culture media. Transection of neurites was performed at 14-21 DIV using an 18-gauge needle to remove the neuronal cell bodies. Lentiviral expression vectors were generated. Lentiviral infection was performed 3-7 days prior to axonal transection for 24 hr. Quantitative analysis of neurite degeneration was performed.
substance,measurement,setting,value
NMNAT3: murine nicotinamide mononucleotide adenylyltransferase3,enzymatic activity (relative NMNAT activity),[1],comparable enzymatic activity compared with NMNAT1
same,axonal degeneration after transection in neurons expressing the construct,[2],same extent of delay in neurite degeneration as well as NMNAT1
